Assay [1] concerns the target T1, CED-9 protein (residues 1-251) (Caenorhabditis elegans, UniProt P41958).
T1 construct: made in house
T1 sequence (P41958 1-251): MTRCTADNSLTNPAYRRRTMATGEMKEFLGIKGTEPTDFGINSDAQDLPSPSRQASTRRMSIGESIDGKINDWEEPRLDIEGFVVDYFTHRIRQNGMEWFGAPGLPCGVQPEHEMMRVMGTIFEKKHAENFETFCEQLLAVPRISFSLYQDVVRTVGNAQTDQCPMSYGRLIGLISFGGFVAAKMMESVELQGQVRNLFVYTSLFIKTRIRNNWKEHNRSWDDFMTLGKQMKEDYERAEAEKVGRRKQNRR
Nature of the assay: GST-EGL-1 fragment/mutant interaction with CED-9 (GST-mediated pull-down assay). Format: binding, C. elegans. The following applies: GST-EGL-1 fragments or mutants, in vitro. On the procedure:
This example describes the characterization of EGL-1/CED-9 interactions. To determine the mechanism of CED-9 recognition by EGL-1, the EGL-1/CED-9 interaction was characterized. Various fragments of the GST-EGL-1 protein were evaluated for their abilities to interact with the CED-9 protein (residues 1-251).
To further characterize EGL-1/CED-9 interactions, a number of missense mutations were introduced into EGL-1 and the ability of the resulting EGL-1 mutants to interact with CED-9 was determined.
This example describes the biochemical and functional analysis of EGL-1/CED-9 interactions. To corroborate the structural analysis, mutations on the interface residues of EGL-1 were examined for their potential to weaken or disrupt its binding to CED-9. Various mutant EGL-1 fragments were purified as fusion proteins with glutathione S-transferase (GST) and their interactions with CED-9 were investigated using a GST-mediated pull-down assay.

The subject of assay [2] is ced-1 (e1735); egl-1 (n1084 n3082) animals. Put plainly: in vivo cell killing: cell corpses in four-fold transgenic embryos after heat-shock expression of EGL-1 fragments. On the set-up: species or system C. elegans. The following applies: anterior head region of four-fold transgenic embryos; heat-shock promoter expression. Here is the method: In this example, the ability of EGL-1 mutants to disrupt the CED-4/CED-9 complex was tested. […] To examine this scenario, constructs were injected into ced-1 (e1735); egl-1 (n1084 n3082) animals that direct expression of various EGL-1 fragments under the control of the C. elegans heat-shock promoters. Cell corpses were scored in the anterior head region of four-fold transgenic embryos after the heat-shock treatment.

The target in the next assay is T2, CED-4/CED-9 complex (Caenorhabditis elegans, UniProt P41958).
T2 sequence (P41958 1-251 limits assumed): T1 sequence (P41958 1-251)
Put plainly: CED-4 displacement assay (pre-assembled CED-4/CED-9 complex on glutathione resin challenged with EGL-1 fragments). Format: biochemical, C. elegans. The following applies: in vitro, remaining complex visualized on SDS polyacrylamide gel. The source says: EGL-1 induces apoptosis by displacing CED-4 from the CED-4/CED-9 complex. To recapitulate this finding in vitro, a CED-4 displacement assay was designed in which pre-assembled CED-4/CED-9 complex was immobilized on glutathione resin and was then challenged with various EGL-1 fragments. After extensive washing, the remaining CED-4/CED-9 complex was eluted from the resin and visualized on SDS polyacrylamide gel. […] In contrast, most missense mutations at the EGL-1/CED-9 interface weakened the ability of EGL-1 to displace CED-4 from the CED-4/CED-9 complex. […] The in vitro studies are in complete agreement with the structural observation.

The mark [3] stands for this setting: listed as EGL-1 double mutant (G55E/F65A).

“Also recorded” adds a separate entry of the source. Where no end group is shown, it is not given here.

On to “N-terminal half (residues 1-45) of EGL-1: N-terminal half of EGL-1, residues 1-45 (MSNVFDVQSSVFYNEKNMFYSSSQDFSSCEDSSQFADDSGFFDDS; not fully specified)”, for which the “interaction with (binding to) CED-9” value in assay [1] was “did not show detectable binding”. Further, the “cell killing (cell corpses induced)” value in assay [2] is reported as “did not induce cell death”.

With “L58A: EGL-1 mutant, Leu58 substituted by Ala (SEISSIGYEIGSKAAAMCDDFDAQMMSYSAHASDRSLFHRLLD; not fully specified)”, the “ability to displace CED-4 from the CED-4/CED-9 complex” value (from here on “ability”) with CED-4/CED-9 complex is given as “significantly reduced ability”. The “interaction with (binding to) CED-9” value in assay [1] is reported as “did not significantly affect its interaction with CED-9; also recorded: retaining their ability to bind to CED-9”.

For the molecule “mut4: EGL-1 quadruple mutant G55E/L58A/F65A/M69A (SEISSIGYEIESKAAAMCDDADAQAMSYSAHASDRSLFHRLLD; also: fused to a dimerising Fc or GST (left off))”, the “ability” value with CED-4/CED-9 complex was “completely failed to disrupt the CED-4/CED-9 complex”. For the same molecule, the “interaction with (binding to) CED-9” value in assay [1] is listed as “failed to bind to CED-9”.

“C-terminal half of EGL-1 (residues 45-91): C-terminal half of EGL-1, residues 45-91 (EDSSQFADDSGFFDDSEISSIGYEIGSKLAAMCDDFDAQMMSYSAHA; UniProt O61667 45-91, looked up, fragment)”: in assay [1], the “interaction with (binding to) CED-9” value is reported as “formed a stable complex”.

On to “C-terminal half of EGL-1 (amino acids 45-87): C-terminal half of EGL-1, residues 45-87 (SEISSIGYEIGSKLAAMCDDFDAQMMSYSAHASDRSLFHRLLD)”, for which the “ability” value with CED-4/CED-9 complex was “completely displaced CED-4”. In assay [1], the “interaction with (binding to) CED-9” value is “necessary and sufficient; also recorded: formed a stable complex”. In addition, the “cell killing (cell corpses induced)” value in assay [2] is “necessary and sufficient”.

Turning to “EGL-1 C-terminal fragment (residues 46-87): EGL-1 C-terminal fragment residues 46-87 expressed in vivo (DSSQFADDSGFFDDSEISSIGYEIGSKLAAMCDDFDAQMMSY; UniProt O61667 46-87, looked up, fragment)”, the “cell killing (cell corpses induced)” value in assay [2] is on record as “about half the number of cell corpses as the full-length EGL-1”.

Take “mut2: EGL-1 double mutant G55E/F65A (SEISSIGYEIESKLAAMCDDADAQMMSYSAHASDRSLFHRLLD; not fully specified)”: the “ability” value with CED-4/CED-9 complex was “completely failed to disrupt the CED-4/CED-9 complex”; with CED-4/CED-9 complex (setting [3]), “failed to bind to CED-9 or to displace CED-4”. For the same molecule, the “interaction with (binding to) CED-9” value is reported as “failed to bind to CED-9” in assay [1]; “failed to bind to CED-9” in assay [1] (setting [3]); “completely abolished its interaction with CED-9” in assay [1] (listed as G55E and F65A). Moreover, the “cell killing (cell corpses induced)” value in assay [2] is “induced no cell killing”.

B1: wild-type EGL-1 protein (residues 1-87): wild-type EGL-1 residues 1-87, lacking the four C-terminal hydrophobic residues (protein)
chain: MSNVFDVQSSVFYNEKNMFYSSSQDFSSCEDSSQFADDSGFFDDSEISSIGYEIGSKLAAMCDDFDAQMMSYSAHASDRSLFHRLLD
With B1, the “ability” value in the assay with CED-4/CED-9 complex is reported as “completely displaced CED-4”.

Values taken from patent US20080138847A1, “Bcl-2 family member and BH-3 only proteins for use in development of peptidomimetics” (priority 2004, published 2008).
